Source: the supplement of paper PMC10567573

B1: KRT15 (parent)
chain: FGGGSTRGGSLLAGGGGFGGGSLS
B2: WDR41 (parent)
chain: HVGELIIWDALDWTMQAYERNFWD

Variants of: B1
Assay: protein stability index of a GFP-peptide fusion (GPS, HEK-293T) (PSI 1-6); higher = more stable
Settings: c terminus: a fixed tail appended
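Also: lentivirally expressed fusions sorted by FACS into six bins by GFP to DsRed ratio, PSI derived from sequencing read proportions per bin multiplied by bin number.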

Protein stability index: each site, then its substitutions
G21: P 2.65 | D 1.75 | R 1.24 | L 1.52 | S 1.95 | I 1.34 | N 2.48
S24: D 1.61 | K 1.49 | N 1.71 | P 2.66 | T 2.51 | I 1.84 | M 3.68
G19: F 2.8 | S 2.06 | I 3.12 | N 2 | E 2.35 | D 1.47 | K 3.1
G2: Q 2 | N 2.94 | R 2.79 | W 2.54 | M 2.15 | P 1.96 | K 3.23 | S 1.75 | F 2.47
F18: P 2.21 | I 1.76 | H 3
G17: S 1.64 | V 1.23 | E 2.74 | C 1.03 | T 3.32 | M 1.07 | K 1.41 | H 1.63 | N 1.41
L23: G 2.26 | I 1.61 | Q 1.96 | M 2.73
R7: N 1.7 | D 1.54 | K 2.32 | P 3.05
S10: I 1.79 | P 2.12 | R 1.4 | K 1.28 | Q 1.89 | W 4.19
F1: M 2.08 | Y 2.25 | S 3.46
G8: E 1.64 | S 1.62 | D 1.57 | F 3.67 | I 1.58 | T 1.8 | R 2.5
G9: V 1.84 | D 2.73 | S 1.05 | N 2.35 | Q 3.25
L11: A 2.83 | N 2.78 | M 1.6 | Y 1.97 | F 1 | I 1.56 | R 2.08
S22: T 2.05 | Q 1.48 | L 1.6 | H 2.29 | F 2.49 | R 2.82
G16: K 2.14 | R 1.56 | D 1.84 | Q 2.4 | T 1.09 | V 1.28 | M 2.16 | Y 1.9 | E 1.55
G14: P 2.17 | S 2.43 | N 2.94 | R 2.42 | I 1.85
G3: N 1.93 | W 1.29 | A 1.79 | Q 2.17 | M 2.74 | L 2.42 | I 3.22 | R 2.26 | Y 2.2 | D 1.32 | F 1.7 | H 1.51
A13: M 2.13 | V 1.94 | I 1.46 | L 2.1 | D 3.4 | H 2.53 | C 1.94 | R 2.67
L12: Y 1.52 | N 3.01 | R 3.6 | C 1.7 | M 2.58 | P 3.24 | I 2.75 | Q 2.67 | G 3.23 | E 2.72 | D 3.38
S5: Q 2.55 | A 1.57 | P 1.53 | F 2.1
G15: C 1.56 | R 2.08 | H 3.02 | V 1.34 | A 1.9 | K 3.17
T6: E 1.62 | M 1.33 | H 1.48 | K 1.66 | V 1.23 | F 2.52
G4: P 2.94 | L 2.04 | S 1.68 | F 1.77 | M 1.89 | E 2.55 | H 2.22 | C 1.37 | K 2.15 | Q 2.17 | W 2.61 | I 2.59 | R 1.58
G20: S 1.77 | T 1.74 | P 3.18 | Y 2.52 | N 2.17 | Q 1.09 | C 1.41 | K 2.1

Variants of: B2
Assay: as above
Settings: c terminus: a fixed tail appended

Protein stability index: each site, then its substitutions
A10: N 1.05
